Assay results taken from a protein production outcome set (Wang et al. 2014).

Assay: label from the status in PepcDB records
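Also: failed if final PepcDB status was selected cloned or expressed and not failed if soluble or beyond.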

For “MDKTYILPIPNEYQNLARELSMQSGKIYSKAVSFLKKINRKGLRIKQKTFYRYMEWWIHQKSFILHSQSKQAAYQQAWTNYTATLRKIKKAKKKNKNTSKIRLPYRNKKYNKVCFKDSAIKLEGDNLILVNMKGAERIVIDNVRIGIKPKYAELLYHADKGKYYVHVVVEIAKEQEAKKRSGKTIAIDLGVIHPMVCFDGNKVVVYNGGVLNSILRYRNKKQSLLQSKISGCQKGSKRRGKLQRAKTKLLRRLSNLIRDVLGKYTSHLIGYCVENGITTIVMGDVKGIRNSKKKSNKVASQKVHQWLFRKISKMIEQKAEFAGIEVVYVKENMTSQICPVCGSKNKPLDRNYECKSCGFRYHRDGVGAVNIYRKYTGESLVVGRLACPTGVRFKSHLRCPVEWNTHPWDKNCSTGKVA”, the protein production was “failed”.

For “MDPTVSLQLSVDRSSPVPLYFQLSQQLEAAIEHGTLTPGSLLGNEIELAARLGLSRPTVRQAIQSLVDKGLLVRRRGVGTQVVHSQVKRPLELSSLYDDLEAAGQRPATQVLLNTLVPASAEVAAALGVAEGSDVHQVERLRLAHGEPMAYLCNYLPTGLLGLDSEQLEATGLYRLMRAAGITLHSARQSVGARAATAVEGERLGEPEGAPLLTMQRTTFDDTGRAVEFGTHTYRASRYSFEFQLLVRP”, the protein production was “failed”.

With “MAIKSISSSLLTRVLSVYFLLTLIVTAIQIGAEYFDTKRVLIAELQNQQSTFNGSLTRSLWEFNSNQIDTIADGLISIPAIAGVLIRDDAGNILVQLGETTEMSDLPDDNSEGALLPERNGIFGYYDSLIFEFSGHSTKVGDVSLFSTRDIAIDRIKVSLGFIIGNAIIKSIFLIVLFTIAFNRMLNRPLSDLTQQIKGFRLDNLERSRIRLDDQHNNELVLVEQAYNQLLDNIEEYQSDLDRTQKKLKAANRQLDEQNAILEQEVARKTSSLSQVMLDLEQRKNELEMRQEKLEREVGQRRAIENTLRQSNQRLESSLNNLRETQQQLIESEKMASLGGLVAGITHDVNTPIGISVTASSYLREKLDTLDQSLLNKELTQTQLKKFIEEGRESLNLLDSNLHRASDLISSFKQVAVDQASDAIRDINLKSYIEDLVQSLQPHLKKTNHQVRLECADDIFIRCPAGALSQIFTNLILNSLRHAFDGISEGLMIISIRLDGETLQVHYSDNGNGLSEAQLKRLFDPFFTTKRDQGGSGLGTHIVRNLVTQTLSGEISAESEPGKGLSYFFSFSVQVLN” the protein production was “failed”.

For “MAMAVPVSARPQSPAEGFYAINNQFQTNGPKGFSEIKILANEDMFLRMDLPGVPDEGGLSVYHNRSQETVVVFAKAPKVHTHDSTERRYQTMTGIGCSCCAISSITTHMSDGVFRVILSKTRIDPHRSPCTDPALTGPVLQPHPLAFPQPTMAYESKQLPNGKLFVRADMPGVPKENFTVSVTNGRVKVTGQAPAVSHDSSGRFYSGDVAMLSTPVDIPSRRIKTIAKNGVIRLLIPPF”, the protein production was “failed”.

For “MHTTSGRWGYGLFLALLTALLWGILPIKLKQVLQVVDPITVTWYRLLVSGGLLFAWLAAQRRLPSMRKLAPRGKGLVLVAVLGLMGNYVLYLIGLKLLSPGTAQLVVQIGPVLLLVASVFVFRERFSVGQGMGLLVLLAGFGLFFNQRLEELLTSLGTYTTGVLTILLATSIWVFYALSQKQLLTVWHSQQVMMVIYLSCAALLTPWVHPLEALQLTPVQGWLLLACCLNTLVAYGAFAEALAHWEASRVSATLALTPLVTFVAVALAAWVWPEYVHAEDINALGYVGAVTVVFGSALVALGPSLVTSWRARRERGQRAYSSEG”, the protein production was “failed”.

For “SLKLAKNVEIEIRTKIHPTESEDKVLKAIRNIFPDAEIEISEEGEVYGRAYSLDRFRELLRKQRILDTARSEILKGRNGKEVTIYLNKQTATVSRINFCDENAVLSPIKVTFRLNNIPFSRFLDYIAPETKDGRPVKEIDKL”, the protein production was “not failed”.

In the case of “MEIKLFCVFIVFIILFSPFVIALSYPDVNYTAENGIIFVQNVTTGEKKPLYLHGVSWFGFELKDHVVYGLDKRNWKDILKDVKRLGFNAIRLPFCSESIRPDTRPSPERINYELNPDLKNLTSLEIMEKIIEYANSIGLYILLDYHRIGCEEIEPLWYTENYSEEQYIKDWIFLAKRFGKYPNVIGADIKNEPHGEAGWGTGDERDFRLFAEKVGREILKVAPHWLIFVEGTQYTHVPNIDEIIEKKGWWTFWGENLMGVKDYPVRLPRGKVVYSPHVYGPSVYMMDYFKSPDFPNNMPIIWETHFGYLTDLNYTLVIGEWGGNYEGLDKVWQDAFVKWLIKKKIYNFFYWCLNPESGDTGGIFLDDWKTVNWEKMRVIYRLIKAANPEFEEPLYIILKTNATTSILGVGERIRIYWYTNGKVIDSNFAHSSEGEMNITVTKSMTLYIIVKKGNQTLRKELKLYVIGGNYGSNISTTQLVTPKKGGERISTSLKLAISLLFILLFVWYLLREKH”, the protein production is reported as “failed”.

In the case of “MIFSSPSQKNHPVGGLEEVMAQGTFVQALRKEAALSSTFMKGRSLMLNGAVLSIEDSGSRFSKNVTLEGAVRGSRGDLYKTHVALDMDEHEVIDYDCDCPAAYRYPGMCKHAIATALAYLDASGIEPVEGLRTPVRTFTAAPKQAARPSSAAPAVNPNFPFPAPVPTSPSLMKALSDLSDARMDELAGMRRKLAGTVDPDAPKAVLEPSLVPYYNPLFADRFSWALELRIRCGSVSYVVKDIDGMAAAYVRGGTFSYGKKLTFLHAPEAFDEVSVRLLDLVVATVVYLSDITSSRSASYDFARSGFVAERQLPLSEHDIVYMLDLLRGRTISFEPAWSRGTTTHRSYEVAVELSPVGEDEASAKQPPLLAAKIAPAAGGSYDLRLPADTYCFVAGDAAYLVDTHRARRADAAFAQHAAPFLSRLLPCRTPVHIAAEQVGEFCRMALPVLREYTGLTAPAVLDTVAPEPSFAMAIGVDDGLVTCKITVSYGDWSADLFSLGAPGSPFEERRPGVPPRDEMAEFRVMDTAALYFDFYEGGLAFEERDDESLFHLLTEGLSALSELGEVMLSDRLRQVSVRPAPKLSVRATVKSNLLDVELGASGLSAADLAIYLDSYKRHQTFARLTSGDIIRLDEGARAAFGLAEDLGVDAVDLLDGVSLPASSTLFVDSMLARTPELEADRDAAFRRTVERLDTLGKMDFTVPVSLKATLRGYQVDGYQWLGSLEHLGLGGILADDMGLGKTLQMIAHILARVEAGDAKPTLVVCPASLVYNWTAELERFAPSLDVCAIVGAKAQRRVQIAGADEHNVVITSYDLMRRDIDEYAEQDFARVVLDEAQYIKNPLTQVAHAAKRLPAGVRFALTGTPIENRLSELWSIFDFLMPGLLGSRESFAKRFESPVEHAEGDSAARLQALVSPFVLRRVKEDVVADLPEKIEDTVMAQLTGEQRKLYLANQDRIAQQVQHREVSEFKKDKLKVLAELTKLRQICCDPHLHYEDYKAGSAKLDACMELVHGALDGGHHILLFSQFTGMLDIIGKRLAKEDIGFLKLTGASSKESRAKMVAQFQAGEVPVFLISLKAGGVGLNLTAADVVIHYDPWWNVAAQDQATDRAHRIGQQHTVTVYKLIAKDTIEERIMRMQESKRDLVNSVLGGDGISSALFTREDVLALLGGDGR”, the protein production is reported as “failed”.

With “MSPCGPLNLSLAGEATTCAAPWVPNTSAVPPSGASPALPIFSMTLGAVSNLLALALLAQAAGRLRRRRSAATFLLFVASLLATDLAGHVIPGALVLRLYTAGRAPAGGACHFLGGCMVFFGLCPLLLGCGMAVERCVGVTRPLLHAARVSVARARLALAAVAAVALAVALLPLARVGRYELQYPGTWCFIGLGPPGGWRQALLAGLFASLGLVALLAALVCNTLSGLALLRARWRRRSRRPPPASGPDSRRRWGAHGPRSASASSASSIASASTFFGGSRSSGSARRARAHDVEMVGQLVGIMVVSCICWSPMLVLVALAVGGWSSTSLQRPLFLAVRLASWNQILDPWVYILLRQAVLRQLLRLLPPRAGAKGGPAGLGLTPSAWEASSLRSSRHSGLSHF” the protein production was “failed”.

For “MSLEALMNVQFFDHAHHKLKIRGLQSPVDVLTFEGREQLSTPFRYDIQFTSSDKAIAPESVLMQDGAFSLTAPPVQGMPVQTALRTLHGVITGFKHLSSSQDEARYEVRLEPRMALLTRSRQNAIYQNQTVPQIVEKILRERHQMRGQDFVFNLKSEYPAREQVMQYGEDDLTFVSRLLSEVGIWFRFATDARLKIEVIEFYDDQSGYERGLTLPLRHPSGLFDGETEAVWGLNTAYSVVEKSVSTRDYNYREATAEMTTGQHDATGGDNTTYGEAYHYADNFLQQGDKEAAESGAFYARIRHERYLNEQAILKGQSTSSLLMPGLEIKVQGDDAPAVFRKGVLITGVTTSAARDRSYELTFTAIPYSERYGYRPALIPRPVMAGTLPARVTSTVKNDIYAHIDKDGRYRVNLDFDRDTWKPGYESLWVRQSRPYAGDTYGLHLPLLAGTEVSIAFEEGNPDRPYIAGVKHDSAHTDHVTIQNEGHHHHHH”, the protein production was “not failed”.

In the case of “MRLAGVGKSCLFAGRCAGIRPRRRLRWVLHFTATVPLNSMSSRRAFLRQCGLALAAAPALSSLPPWLSSADGFTSLRGGIGTFTQRGGTIGWLATDDGIAVVDTQSPQSAPDCWNGLRERSDSPLAMVINTHHHGDHVGGNGVFARHTDRLVAHANVPELMRAGAEDGAADEKTYPTETFQDTWSEPLGDETITLRYRGPAHTGGDAIVVFENANIVHVGDLVFNRAYPFIDVGGGADSQGWIDSLETIHGALDDDTIVIHGHGNPDFGVTGGREDLLVMRDFLSALNEYVTQQRQAGASLDEMKQTKVLDGFEAFNFDWALSLADCIEAVYREQTAG”, the protein production is reported as “failed”.

For “LNDALLLMEANIEDPLTTDEIAGLVGVSRRQLERLFRQYLGAMPSKYYLNLRLLKARTQLQRTSKSVVQVSLACGFSSAAHFSNAYRERFGVTPREDRRA”, the protein production was “not failed”.

In the case of “MIRYLALLALLAAPWVQAADALHDDLPLKYLEQAPAEPRNQPLVIFLHGYGSNEADLFGLRQRLPASYTYVSVRAPQTLEEGSYQWFHRKGQGPYDGVTSELASGAELIGQFVRAALAKYQTQPDKVVLVGFSQGAVMAYEVGLRHPQSVRGIAALSGKILPVLAAQVKNNPSLQRLGIFIGHGTLDQRLPYSDAVDAQRLLQGLSLQPQFHAYPGLGHSISEAEIDDLKGWLQGLNP”, the protein production is reported as “failed”.

In the case of “MRDDVFGQSNSLTRADSAEAWDGVLLGFMAHAAVTPQHLARVLELEPDFALAHAIKGLFMLLLGRREMTPVAIEAMAAAERAAAARAITAREGHYLAALRHWLAGNPSRSVQEFEAILRAHPDDTLAMKLSHATRFVLGDPAGMRRSIERVMPAYAPDHAGRGYLLGCHAFALEETGAYDKAEIAGRQALWMVSDDAWGLHAVAHVHEMKGQSELGLDWLAGREAAWSHCNNFRYHVWWHKALMHLDQGQIDQVFDLYDSAIRKDKTDDYRDISNATSLLSRLELEGVNVGDRWEELADLSAARTEDGCLIFADLHYLLALTGDTREDAISRMLHRIKRDADMAQCDTTRRMADPGLAAAQGLEAFGEGQYGQAFDHLLTARGSMQLAGGSHAQRDVFERITIDAGLRAGRLDAVERVLDDRRAKRGGHEDTYALARRALIEAGRDDRNIHSVPAE”, the protein production is reported as “failed”.

In the case of “MQYVMSIIGIIAVLGLCFALSNNKSKINFRAIAIMIGFQILIGWFMFATKIGQQIIIFISKVFNKLIKLGTTGVDFLFNGIHRDFVFFLNVLLIIVFFSALLSIFSYLGVLPFIVRVVGGAISKITGLPRVESFHAVNSVFFGSSEALIVIKNDLQHFNKNRMFIICCSAMSSVSASVTASYVMMLDAKYVLAALPLNLFSSLIVCSLLTPVDTKKEDEVIQKFDRTLFGDSFIGAMINGALDGLKVAGIVAALMIAFIGVMEVVNYVISAASGAMGHAVTLQQIFGYVLSPFAFLMGIPTQDIIPAGGIMGTKIVLNEFVAILDLKDTATTLAPRTVGIVTVFLISFASISQIGAIVGTIRALSEKQGSVVSKFGWKMLFASTLASILSATIAGLFI”, the protein production is reported as “failed”.

With “MSLEDRKNERLPSDLARRATAIIEMPDGVLVTASRGGRYNLPGGKANRGELRSQALIREIREETGLRINSMLYLFDHITPFNAHKVYLCIAQGQPKPQNEIERIALVSSPDTDMDLFVEGRAILRRYARLRNEETAKGEALRALLGLARYIAKVDEGHHHHHH” the protein production was “not failed”.
